According to patent publication US20170313764A1 (ACADEMISCH MEDISCH CENTRUM, published 2017):

Experiments:
[1] = target: E1E2 of HCV isolate AMS.1b.20877857 (genotype 1b) (Hepatitis C virus genotype 1b); experiment: cell-based or functional assay
[2] = target: E1E2 of HCV isolate AMS.4d.20875969 (genotype 4d) (Hepatitis C virus genotype 4d); experiment: cell-based or functional assay
[3] = target: E1E2 of HCV isolate AMS.3a.21071213 (genotype 3a) (Hepatitis C virus genotype 3a); experiment: cell-based or functional assay
[4] = target: E1E2 of HCV isolate AMS.2b.20876551.kloon21 (genotype 2b) (Hepatitis C virus genotype 2b); experiment: cell-based or functional assay
[5] = target: E1E2 of HCV isolate UKN4.11.1 (genotype 4) (Hepatitis C virus genotype 4); experiment: cell-based or functional assay
[6] = target: T1, soluble E2-his6-sortase tag from HCV isolate AMS.2b.20876551.kloon21 (genotype 2b) (Hepatitis C virus genotype 2b); experiment: SPR (IBIS MX96), antibody spotted on chip, soluble E2-his as analyte
T1 chain: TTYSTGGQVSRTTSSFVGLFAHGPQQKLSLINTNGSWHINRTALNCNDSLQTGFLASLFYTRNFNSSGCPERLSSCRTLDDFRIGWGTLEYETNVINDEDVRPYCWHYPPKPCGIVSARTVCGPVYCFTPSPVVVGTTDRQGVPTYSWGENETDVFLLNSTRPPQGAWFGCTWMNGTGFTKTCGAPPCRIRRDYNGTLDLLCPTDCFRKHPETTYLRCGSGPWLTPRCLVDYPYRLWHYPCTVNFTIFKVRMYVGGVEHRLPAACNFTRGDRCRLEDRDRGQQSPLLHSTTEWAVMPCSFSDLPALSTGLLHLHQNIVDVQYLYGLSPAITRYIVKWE

[7] = target: T2, soluble E2-his6-sortase tag from HCV isolate H77 (genotype 1a) (Hepatitis C virus genotype 1a, strain …, UniProt P27958 384-717); experiment: as above
T2 construct: also called E2-his6-ST; E2 genotype 1a

[8] = target: T3, HCV E1E2 protein in transfected 293T cells (CD81 competition assay; isolate not stated); experiment: flow cytometry competition: E1E2-transfected 293T cells pre-incubated with antibody, then CD81-LEL (mouse Fc) added and detected; blocked ligand CD81-LEL
T3 construct: also called E1E2 transfected cells

[9] = target: E1E2 of HCV isolate H77 with single mutation A439G (Hepatitis C virus genotype 1a, strain …, UniProt P27958 192-383; P27958 384-746); experiment: ELISA, GNA-captured E1E2 lysate; EC50 wild type / EC50 mutant
[10] = target: E1E2 of HCV isolate H77 with single mutation Y443A (Hepatitis C virus genotype 1a, strain …, UniProt P27958 192-383; P27958 384-746); experiment: as above
[11] = target: E1E2 of HCV isolate H77 with single mutation S424A (Hepatitis C virus genotype 1a, strain …, UniProt P27958 192-383; P27958 384-746); experiment: as above
[12] = target: E1E2 of HCV isolate H77 with single mutation Y485A (Hepatitis C virus genotype 1a, strain …, UniProt P27958 192-383; P27958 384-746); experiment: as above
[13] = target: E1E2 of HCV isolate H77 with single mutation T526A (Hepatitis C virus genotype 1a, strain …, UniProt P27958 192-383; P27958 384-746); experiment: as above
[14] = target: E1E2 of HCV isolate H77 with single mutation Y527A (Hepatitis C virus genotype 1a, strain …, UniProt P27958 192-383; P27958 384-746); experiment: as above
[15] = target: E1E2 of HCV isolate H77 with single mutation G530A (Hepatitis C virus genotype 1a, strain …, UniProt P27958 192-383; P27958 384-746); experiment: as above
[16] = target: E1E2 of HCV isolate H77 with single mutation D535A (Hepatitis C virus genotype 1a, strain …, UniProt P27958 192-383; P27958 384-746); experiment: as above
[17] = target: E1E2 of HCV isolate H77 with single mutation R657A (Hepatitis C virus genotype 1a, strain …, UniProt P27958 192-383; P27958 384-746); experiment: as above
[18] = target: E1E2 of HCV isolate H77 with single mutation T435A (Hepatitis C virus genotype 1a, strain …, UniProt P27958 192-383; P27958 384-746); experiment: as above
[19] = target: E1E2 of HCV isolate H77 with single mutation G436A (Hepatitis C virus genotype 1a, strain …, UniProt P27958 192-383; P27958 384-746); experiment: as above
[20] = target: E1E2 of HCV isolate H77 with single mutation N415A (Hepatitis C virus genotype 1a, strain …, UniProt P27958 192-383; P27958 384-746); experiment: as above
[21] = target: E1E2 of HCV isolate H77 with single mutation D698A (Hepatitis C virus genotype 1a, strain …, UniProt P27958 192-383; P27958 384-746); experiment: as above
[22] = target: E1E2 of HCV isolate H77 with single mutation W616A (Hepatitis C virus genotype 1a, strain …, UniProt P27958 192-383; P27958 384-746); experiment: as above
[23] = target: E1E2 of HCV isolate H77 with single mutation W529A (Hepatitis C virus genotype 1a, strain …, UniProt P27958 192-383; P27958 384-746); experiment: as above
[24] = target: E1E2 of HCV isolate H77 (genotype 1a), wild type (Hepatitis C virus genotype 1a, strain …, UniProt P27958 192-383; P27958 384-746); experiment: cell-based or functional assay
[25] = target: E1E2 of HCV isolate H77 with single mutation G418A (Hepatitis C virus genotype 1a, strain …, UniProt P27958 192-383; P27958 384-746); experiment: ELISA, GNA-captured E1E2 lysate; EC50 wild type / EC50 mutant
[26] = target: E1E2 of HCV isolate H77 with single mutation L413A (Hepatitis C virus genotype 1a, strain …, UniProt P27958 192-383; P27958 384-746); experiment: as above
[27] = target: E1E2 of HCV isolate H77 with single mutation W420A (Hepatitis C virus genotype 1a, strain …, UniProt P27958 192-383; P27958 384-746); experiment: as above

B1: AT12-011 (antibody, V domains shown)
VH: QVQLVQSGAEVKKPGSSVKVSCKASGGTFSGYGITWVRQAPGQGLEWMGTIIPVSATETYAQRLQGRVTISADEHSTTSYMEVSSLKSEDTALYYCARHDYFWGTPLDIWGQGTMVIVSS
VL: EIVLTQSPDFQSVTPKEKVTITCRASQSIGSNLHWYQQKPGQSPKLLIKYASQSFSGVPSRFSGSGSGTDFTLTINSLEAEDAATYFCHQSYNLPRTFGGGTKVEIKR
IC50, HCVpp neutralization [1]: 4.31 µg/mL | IC90, HCVpp neutralization [1]: > 50 µg/mL | IC50, HCVpp neutralization [2]: > 50 µg/mL | IC90, HCVpp neutralization [2]: > 50 µg/mL | IC50, HCVpp neutralization [3]: > 50 µg/mL | IC90, HCVpp neutralization [3]: > 50 µg/mL | IC50, HCVpp neutralization [4]: 27.5 µg/mL | IC90, HCVpp neutralization [4]: > 50 µg/mL | IC50, HCVpp neutralization [5]: > 50 µg/mL | IC90, HCVpp neutralization [5]: > 50 µg/mL | Kd [6]: 0.2 nM | Kd [7]: 0.3 nM

B2: AT12-009 (antibody, V domains shown)
VH: SSVRVSCKASGDTFKTHAISWVRQAPGQGLEWVGGTVRQAPGDGLELLGGFVPILAPANDAQKFQGRVTITADGSTGPVYMDLSTLTSEDTAMYYCVTSLSEPIPRSCRGGRCYSGPFDAFGVWGQGTMVTVSS
VL: ETMLTQSPVTLSVSPGERATLSCRASQSIGTNLAWYQQKPGQAPRLLIHGASTRATGVPVSFSGSGSGTEFTLTISSLQSEDFAVYYCQQYNNWPLTFGGGTKVDFKR
IC50 (read off the curve) [8]: ~2 µg/mL | IC50, HCVpp neutralization [1]: 0.001 µg/mL | IC90, HCVpp neutralization [1]: 0.13 µg/mL | IC50, HCVpp neutralization [2]: 0.72 µg/mL | IC90, HCVpp neutralization [2]: 47.4 µg/mL | IC50, HCVpp neutralization [3]: 0.14 µg/mL | IC90, HCVpp neutralization [3]: 5.34 µg/mL | IC50, HCVpp neutralization [4]: 0.06 µg/mL | IC90, HCVpp neutralization [4]: 6.17 µg/mL | IC50, HCVpp neutralization [5]: 0.19 µg/mL | IC90, HCVpp neutralization [5]: 14.1 µg/mL | Kd [6]: 2.3 nM | koff [6]: 0.0002 s⁻¹

B3: AT13-021 (antibody, V domains shown)
VH: QVQLVQSGAEVKKPGSSVKVSCKASGGTFNTHAFSWVRQAPGEGLEWMGGISPMSGTPNYAQKFQGRLTITADESTSTGYMELRSLTSEDTAVYYCARELIGYCTGGNCYSFGDFWGQGTLITVSS
VL: EIVMTQSPATLSVSPGERATLSCRASQSVSSHLAWYQHKPGQAPRLLISGASTRAVGVPARFSGSGSGTEFTLTISSLQSEDFAVYYCHQYNTWPRGFGQGTKVDFKR
relative binding, mutant vs wild type [9]: 53% | relative binding, mutant vs wild type [10]: 87% | relative binding, mutant vs wild type [11]: 17% | relative binding, mutant vs wild type [12]: 114% | relative binding, mutant vs wild type [13]: 27% | relative binding, mutant vs wild type [14]: 21% | relative binding, mutant vs wild type [15]: < 10% | relative binding, mutant vs wild type [16]: < 10% | relative binding, mutant vs wild type [17]: 88% | relative binding, mutant vs wild type [18]: 21% | relative binding, mutant vs wild type [19]: < 10% | relative binding, mutant vs wild type [20]: 119% | relative binding, mutant vs wild type [21]: 80% | relative binding, mutant vs wild type [22]: < 10% | relative binding, mutant vs wild type [23]: 13% | IC50, HCVpp neutralization [1]: 0.09 µg/mL | IC90, HCVpp neutralization [1]: 5.67 µg/mL | IC50, HCVpp neutralization [24]: 0.3 µg/mL | IC90, HCVpp neutralization [24]: 9.98 µg/mL | IC50, HCVpp neutralization [2]: 0.94 µg/mL | IC90, HCVpp neutralization [2]: > 50 µg/mL | IC50, HCVpp neutralization [3]: 0.25 µg/mL | IC90, HCVpp neutralization [3]: 12.3 µg/mL | IC50, HCVpp neutralization [4]: 0.12 µg/mL | IC90, HCVpp neutralization [4]: 8.84 µg/mL | IC50, HCVpp neutralization [5]: 0.94 µg/mL | IC90, HCVpp neutralization [5]: 13.9 µg/mL | Kd [6]: 2 nM | koff [6]: 0.0001 s⁻¹ | Kd [7]: 14.2 nM | koff [7]: 0.00036 s⁻¹ | relative binding, mutant vs wild type [25]: 131% | relative binding, mutant vs wild type [26]: 185% | relative binding, mutant vs wild type [27]: 103%
